US20210388105A1 (ELPISCIENCE SUZHOU BIOPHARMA, published 2021)

T1: KW27-4 (human CD39 mutant, C-terminal EGFP) (human, UniProt P49961 1-510)
T1 construct: expressed on HEK293F cells; not shown: C-terminal EGFP fusion (vector pCMV3-GFPSpark)
T1 chain: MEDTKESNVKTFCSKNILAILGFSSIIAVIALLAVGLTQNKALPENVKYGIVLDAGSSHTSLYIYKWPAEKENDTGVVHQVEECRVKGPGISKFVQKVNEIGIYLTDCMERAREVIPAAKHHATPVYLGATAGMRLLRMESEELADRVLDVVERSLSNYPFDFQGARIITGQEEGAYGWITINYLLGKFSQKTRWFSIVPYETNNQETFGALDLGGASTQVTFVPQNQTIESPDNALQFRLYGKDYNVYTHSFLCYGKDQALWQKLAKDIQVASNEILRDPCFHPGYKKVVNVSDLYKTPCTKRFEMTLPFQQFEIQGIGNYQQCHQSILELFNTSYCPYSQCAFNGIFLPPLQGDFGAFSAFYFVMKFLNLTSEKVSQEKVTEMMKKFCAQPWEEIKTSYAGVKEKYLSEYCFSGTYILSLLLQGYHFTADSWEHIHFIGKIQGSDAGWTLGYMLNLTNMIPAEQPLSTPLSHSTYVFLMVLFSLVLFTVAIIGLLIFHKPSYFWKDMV

T2: KW27-10 (human CD39 mutant, C-terminal EGFP) (human, UniProt P49961 1-510)
T2 construct: expressed on HEK293F cells; not shown: C-terminal EGFP fusion (vector pCMV3-GFPSpark)
T2 chain: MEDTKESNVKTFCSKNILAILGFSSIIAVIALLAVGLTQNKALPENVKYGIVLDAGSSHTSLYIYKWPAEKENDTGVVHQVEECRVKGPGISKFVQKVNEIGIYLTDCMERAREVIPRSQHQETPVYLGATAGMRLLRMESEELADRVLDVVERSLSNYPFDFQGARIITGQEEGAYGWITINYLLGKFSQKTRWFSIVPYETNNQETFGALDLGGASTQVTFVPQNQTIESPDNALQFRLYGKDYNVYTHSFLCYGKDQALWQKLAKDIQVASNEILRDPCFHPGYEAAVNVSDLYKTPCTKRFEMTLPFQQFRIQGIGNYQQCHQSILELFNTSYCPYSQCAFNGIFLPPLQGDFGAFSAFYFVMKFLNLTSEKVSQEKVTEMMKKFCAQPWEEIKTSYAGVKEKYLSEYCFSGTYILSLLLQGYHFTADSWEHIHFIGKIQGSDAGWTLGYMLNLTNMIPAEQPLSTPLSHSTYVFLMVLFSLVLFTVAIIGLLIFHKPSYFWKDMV

T3: human CD39 (full length, on cells) (human, UniProt P49961 1-510)
T3 construct: Recombinant on CHOK1-hCD39 cells or natural on SK-MEL-28, SK-MEL-5 and MOLP-8 cells; the cell line is named under assay; also called hCD39; ENTPD1
T3 sequence: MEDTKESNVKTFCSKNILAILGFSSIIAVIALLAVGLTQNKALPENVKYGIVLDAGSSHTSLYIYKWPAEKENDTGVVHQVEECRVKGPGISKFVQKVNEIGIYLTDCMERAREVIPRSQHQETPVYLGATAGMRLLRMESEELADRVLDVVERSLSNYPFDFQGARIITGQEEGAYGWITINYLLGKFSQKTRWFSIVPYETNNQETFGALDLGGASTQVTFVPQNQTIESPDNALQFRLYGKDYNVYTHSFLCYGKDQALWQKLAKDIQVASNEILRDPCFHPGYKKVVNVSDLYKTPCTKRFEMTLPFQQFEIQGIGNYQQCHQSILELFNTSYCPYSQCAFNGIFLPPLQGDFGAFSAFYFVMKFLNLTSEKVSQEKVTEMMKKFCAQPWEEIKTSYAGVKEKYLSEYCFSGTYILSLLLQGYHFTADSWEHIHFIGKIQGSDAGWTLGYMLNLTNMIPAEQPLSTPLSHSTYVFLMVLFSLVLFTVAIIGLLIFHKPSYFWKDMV


Key:
[1] = target: T1, KW27-4 (human CD39 mutant, C-terminal …); assay: FACS, mutant-EGFP on HEK293F cells
Outline: (§1)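 HEK293F cells were transfected with human CD39 mutants carrying C-terminal GFP and used 3 days later. Antibodies were titrated from 100 nM (3-fold, 11 points) and detected by FACS with AlexaFluor647 anti-hIgG. Relative binding was AlexaFluor647 intensity divided by GFP intensity.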

[2] = target: T2, KW27-10 (human CD39 mutant, C-terminal …); assay: FACS, mutant-EGFP on HEK293F cells
Outline: as §1

[3] = target: T3, human CD39 (full length, on cells); assay: FACS competition on CHOK1-hCD39; competitor mAb23-Alexa488
Procedure: Anti-CD39 antibodies were labeled using Alex488 labeling kit and were diluted in a series of concentrations, before mixing with CHOK1-hCD39 cells to test binding EC₅₀using FACS. The non-labeled antibodies were tested for their blocking efficacy to the labelled ones. Briefly, mononuclear CHOK1-hCD39 cells were prepared to 2×10⁶/ml and plated into 96 well at 50 μl/well, then mixed with antibodies gradients to final volume at 100 μl, and then equal volume of Alex488 label antibodies were added at two folds EC80 concentration. 96 well plates were incubated at 4° C. for 1 hour, and spun down and washed 3 times with 200 μl FACS buffer. The FACS analysis was performed on FACScelesta machine and data was analyzed by Flowjo software. The blocking percentages were calculated and those having above 80% competition rate were allocated into one epitope group, compared with the non-competing well (Alex488 labeled antibody only).
Based on the competition results, the 4 anti-CD39 hybridoma antibodies (mAb14, mAb19, mAb21, mAb23) can be grouped into 4 different epitope groups, as shown in Table 11.

[4] = target: T3, human CD39 (full length, on cells); assay: FACS, MOLP-8 cells
Procedure: Similarly, human CD39 expressing cells SK-MEL-5, SK-MEL-28 or MOLP-8, were incubated with a gradient concentration of anti-CD39 antibodies for 30 minutes at 4° C. Cells were washed 3 times using FACS buffer and next incubated with fluorescence labelled secondary antibody (goat-anti-mouse IgG or goat anti-human IgG) for 30 minutes at 4° C. Cells were washed 3 times and then re-suspended in FACS buffer and analyzed by flow cytometry analysis on BD Celesta. Data plotted and analyzed using GraphPad Prism 8.02.
Binding affinity of the humanized antibodies hu23.H5L5 and hu14.H1L1 were tested on different cells by FACS following the similar method as described in Example 3.2.
Reference antibodies T895 and 1394 were tested in parallel as control antibodies. As shown in FIG. 12 and summarized in Table 23, both antibodies hu23.H5L5 and hu14.H1L1 bound to human and cynomolgus CD39 expressing cells in a dose-dependent manner and with similar affinity by EC₅₀ at a sub-nanomolar or nanomolar level. Neither of them recognized mouse CD39 in the FACS study. Maximum signal (mean fluorescence intensity, MFI) differed between cells for each antibody may result from their different expression level.

Row | Binder | binding result [1] | binding result [2] | blocking percentage [3] [%] | EC50 [4] [nM]
1 | c35 (antibody, V domains shown, its making is not described; also called chimeric antibody c35) VH: EVRLQQSGAELVKPGASVKLSCTASGFNIEDTYVHWMKQRPEQGLEWIGRIDPAIDNSKYDPKFQGKATITAVSSSNTAYLQLSSLTSEDTAVYYCALYDGYNVYAMDYWGQGTSVTVSS VL: DIVMTQAAFSNPVTLGTSASISCRSSKNLLHSNGITYLYWYLQRPGQSPQLLIYRASTLASGVPNRFSGSESGTDFTLRISRVEAEDVGVYYCAQLLELPHTFGGGTKLEIK | binds | binds |  | 
2 | Antibody T895 (antibody, V domains shown, also called 31895) VH: EVQLQQSGPELVKPGASVKMSCKASGYTFTDYNMHWVKQSHGRTLEWIGYIVPLNGGSTFNQKFKGRATLTVNTSSRTAYMELRSLTSEDSAAYYCARGGTRFAYWGQGTLVTVSA VL: not shown | binds | binds |  | 0.11
3 | hu23.H5L5 (antibody, V domains shown, humanized c23) VH: QVQLVQSGAEVKKPGASVKVSCKASGYNLKDTFLHWVRQAPGQGLEWMGRIDPANGNIKYDPKFQGRVTITADTSANTAYMELISLRSEDTAVYYCANSPYYYGSGYRIFDVWGQGTTVTVSS VL: QIVLTQSPATLSLSPGERATLSCSAFSSVNYMHWYQQKPGQAPRLLIYTTSNLASGIPTRFSGSGSGTSYTLTISSLEPEDFAVYYCQQRSTYPFTFGQGTKLEIK | binds | binds |  | 0.14
4 | c34 (antibody, V domains shown, its making is not described; also called chimeric antibody c34) VH: EIQVQQSGPELVKPGASVKVSCKASGYSFTDYNMYWVKQSHGKSLEWIGFIDPYNGYTSYNQKFKGKATLTIDKSSSTAFMHLNSLTSEDSAVYYCAIYGYDDAYYFDYWGQGTTLTVSS VL: QIVLTQSPAIMSASPGEKVTITCSATSSVSYMHWFRQKPGTSPKLWIYSTSNLASGVPARFSGSGSGTSYSLTISRMAAEDAATYYCQQRITYPFTFGSGTKLEIT | binds | binds |  | 

Second part, the binder after the results:

Row | binding result [1] | binding result [2] | blocking percentage [3] [%] | EC50 [4] [nM] | Binder
5 |  |  | -26 |  | mAb14 (antibody, V domains shown, mouse hybridoma antibody) VH: EVKLEESGGGLVQPGGSMKLSCVASGFTFSKYWMNWVRQSPEKGLEWVAEIRLKSNKYGTHYAESVKGRFTISRDDSKNNVYLQMNNLRPEDTGIYYCTTQLDLYWFFDVWGAGTTVTVSS VL: DIVMTQSPAILSVTPGDRVSLSCRASQSISDYLHWYQQKSHESPRLLIKYASQSISGIPSRFSGSGSGSNFTLSINSVEPEDVGVYFCQNGHSLPLTFGAGTKLELR
6 | binds | binds | 100 |  | Antibody 9-8B (antibody, V domains shown) VH: QIQLVQSGPELKKPGETVKISCKASGYTFTHYGMNWVKQAPGKGLKWMGWINTYTGELTYADDFKGRFAFSLETSASTAYLQINNLKNEDTATYFCARRAYYRYDYVMDYWGQGTSVTVSS VL: DIVMTQSQKFMSTSVGDRVSVTCKASHNVGTNVAWYQQKPGQSPKALIYSASYRYSGVPGRFTGSGSGTDFTLTISNVQSEDLAEYFCHQYNNYPYTFGGGTKLEIK
